# Bridge positions count the residues as written; N and C are the ends. Ends that are not written are not given here. * marks the point of attachment. Myristoyl = CCCCCCCCCCCCCC(=O)*
# T1: p32 or gC1q receptor (human, UniProt Q07021 74-282)
# T1 construct: whole, on cells; Endogenous protein on cell lines; also called p32 receptor; cell surface p32
# T1 sequence (looked up): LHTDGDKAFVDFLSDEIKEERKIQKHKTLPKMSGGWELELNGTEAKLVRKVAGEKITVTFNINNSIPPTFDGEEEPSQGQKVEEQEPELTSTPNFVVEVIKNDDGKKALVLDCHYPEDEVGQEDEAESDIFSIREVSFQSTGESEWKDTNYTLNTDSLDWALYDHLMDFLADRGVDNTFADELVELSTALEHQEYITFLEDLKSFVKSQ
# Columns and labels:
# p32 or gC1q receptor [1] = biological target: T1, p32 or gC1q receptor; experiment: free LyP-1 (5 to 20 µM) as competitor on HeLa cells, read out as GFP silencing
# Protocol: For the initial screen, HeLa cells stably expressing destabilized GFP were cultured in 96-well plates to ˜70-80% confluence. siRNA (0-100 nM) was incubated with 20-fold molar excess of tetramethylrhodamine-labelled tandem peptides in PBS for 10-15 min at room temperature, then incubated over cells in DMEM for 4 h at 37° C., after which the medium was replaced. The complexes were then added to HeLa cell cultures and incubated for 4 h at 37° C., after which the medium was replaced with 100 μL of fresh medium with 10% serum.
# p32 or gC1q receptor [2] = biological target: T1, p32 or gC1q receptor; experiment: TAMRA-labeled tandem peptide incubated on MDA-MB-435 cells with p32 shRNA or control shRNA
Binder,binding result (p32 or gC1q receptor [1]),binding result (p32 or gC1q receptor [2])
"CGNKRTRGC (disulfide 1-9 (inferred), also called unlabeled LyP-1 peptide) [free LyP-1 peptide]",binds,–
"Myristoyl-GWTLNSAGYLLGKINLKALAALAKKILGGGGARALPSQRSR (also: TAMRA label, place not given here, also called untargeted tandem peptide; control peptide (TP-ARAL)) [TP-ARAL tandem peptide]",–,no binding
